Results: publication PMC1283537 (2005)

Molecular target: T1, Scd5 DxxDxxxD motif peptide (Saccharomyces cerevisiae, UniProt P34758)
T1 chain: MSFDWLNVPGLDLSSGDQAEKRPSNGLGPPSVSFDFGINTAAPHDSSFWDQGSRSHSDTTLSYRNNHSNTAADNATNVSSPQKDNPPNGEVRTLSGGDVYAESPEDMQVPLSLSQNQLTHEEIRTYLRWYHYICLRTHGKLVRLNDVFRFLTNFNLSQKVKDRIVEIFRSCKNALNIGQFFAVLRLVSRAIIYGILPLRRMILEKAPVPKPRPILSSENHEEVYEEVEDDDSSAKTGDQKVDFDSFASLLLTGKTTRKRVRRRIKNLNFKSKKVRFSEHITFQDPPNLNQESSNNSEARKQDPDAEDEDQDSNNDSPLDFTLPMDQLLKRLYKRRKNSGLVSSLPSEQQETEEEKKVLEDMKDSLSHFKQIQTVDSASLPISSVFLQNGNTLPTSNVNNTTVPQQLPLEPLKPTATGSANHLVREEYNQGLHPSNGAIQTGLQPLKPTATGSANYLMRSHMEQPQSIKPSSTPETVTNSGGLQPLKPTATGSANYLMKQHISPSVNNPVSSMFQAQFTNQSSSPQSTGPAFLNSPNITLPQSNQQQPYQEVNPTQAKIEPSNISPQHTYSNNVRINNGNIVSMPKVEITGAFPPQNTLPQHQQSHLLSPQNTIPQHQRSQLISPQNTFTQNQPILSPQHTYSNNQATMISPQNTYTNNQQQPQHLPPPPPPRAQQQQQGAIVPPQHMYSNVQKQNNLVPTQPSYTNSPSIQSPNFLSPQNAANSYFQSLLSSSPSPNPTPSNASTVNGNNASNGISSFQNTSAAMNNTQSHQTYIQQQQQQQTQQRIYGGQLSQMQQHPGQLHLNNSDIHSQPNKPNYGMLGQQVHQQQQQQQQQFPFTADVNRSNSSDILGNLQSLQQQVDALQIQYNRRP
Test: fluorescence polarization

B1: PP1 (Glc7) (protein)
chain: MDSQPVDVDNIIDRLLEVRGSKPGQQVDLEENEIRYLCSKARSIFIKQPILLELEAPIKICGDIHGQYYDLLRLFEYGGFPPESNYLFLGDYVDRGKQSLETICLLLAYKIKYPENFFILRGNHECASINRIYGFYDECKRRYNIKLWKTFTDCFNCLPIAAIIDEKIFCMHGGLSPDLNSMEQIRRVMRPTDIPDVGLLCDLLWSDPDKDIVGWSENDRGVSFTFGPDVVNRFLQKQDMELICRAHQVVEDGYEFFSKRQLVTLFSAPNYCGEFDNAGAMMSVDESLLCSFQILKPAQKSLPRQAGGRKKK
modifications: fluorescently labelled peptide
- Kd: 22 µM
